Measurements taken from US5547843.

Tested on: E. coli single-stranded DNA-binding protein (SSB) (Escherichia coli)
Conditions: saturating ratio inferred from priming titration (mass ratio SSB:DNA about 2.5); 40 mM Tris-Cl pH 7.5, 50 mM NaCl, 10 mM MgCl2, 0 C; indirect functional …

M13 single-stranded viral DNA
binding (nt per SSB monomer): 22
